# Data from patent publication US20260258135A1 (BIOINTRON BIOLOGICAL, published 2026).
# Residue numbers refer to the chain shown, from its start.
# B1: B378737-ZH-1 (VHH)
# VHH: QVQLVESGGGLVQPGGSLRLSCAASARSINGQEWYRQAPGERRELVAGITAGGSAYYTDTVKGRFTISRDNAENTGYLQMNSLSPDDTAVYYCRRQFGPNWYWGQGTQVTVSS
# notes: Hotspot combination (positions 32 and 97); not shown: human IgG Fc implied (supernatant captured with goat anti-human IgG Fc)
# B2: B378737-ZH-4 (VHH)
# VHH: B1 VHH with V61H, F97V
# notes: Hotspot combination (positions 32, 61 and 97); not shown: human IgG Fc implied (supernatant captured with goat anti-human IgG Fc)
# B3: B378737-ZH-2 (VHH)
# VHH: B1 VHH with F97V
# notes: as for B1
# B4: B378737-97-2 (VHH)
# VHH: B1 VHH with Q3R, Q32M, F97V
# notes: Single-point mutant of B378737 (position 97); copied as printed; not shown: human IgG Fc implied (supernatant captured with goat anti-human IgG Fc)
# B5: B378737-97-1 (VHH)
# VHH: B1 VHH with Q32M
# notes: Single-point mutant of B378737 (position 97); not shown: human IgG Fc implied (supernatant captured with goat anti-human IgG Fc)
# B6: B378737-32 (VHH)
# VHH: B1 VHH with F97Y
# notes: Single-point mutant of B378737 (position 32); not shown: human IgG Fc implied (supernatant captured with goat anti-human IgG Fc)
# B7: B378737-61-6 (VHH)
# VHH: B1 VHH with Q32M, V61K, F97Y
# notes: Single-point mutant of B378737 (position 61); not shown: human IgG Fc implied (supernatant captured with goat anti-human IgG Fc)
# B8: B378737-51 (VHH)
# VHH: B1 VHH with Q32M, A51S, F97Y
# notes: Single-point mutant of B378737 (position 51); not shown: human IgG Fc implied (supernatant captured with goat anti-human IgG Fc)
# B9: B378737-61-5 (VHH)
# VHH: B1 VHH with Q32M, V61H, F97Y
# notes: as for B7
# B10: B378737-61-3 (VHH)
# VHH: B1 VHH with Q32M, V61S, F97Y
# notes: as for B7
# B11: B378737-61-7 (VHH)
# VHH: B1 VHH with Q32M, V61L, F97Y
# notes: as for B7
# B12: B378737-61-1 (VHH)
# VHH: B1 VHH with Q32M, V61P, F97Y
# notes: as for B7
# B13: B378737-61-2 (VHH)
# VHH: B1 VHH with Q32M, V61Y, F97Y
# notes: as for B7
# B14: B378737-61-4 (VHH)
# VHH: B1 VHH with Q32M, V61T, F97Y
# notes: as for B7
# Target: T1, PDL1/His protein (human, UniProt Q9NZQ7 19-238, limits assumed, biotin-labeled in Examples 4 and 6 (site not stated); unlabeled in Example 9)
# T1 construct: The reagent is named only PDL1/His; also called Biotin-labeled PDL1/His; Bio-PDL1; not shown: His tag
# T1 sequence (Q9NZQ7 19-238 limits assumed): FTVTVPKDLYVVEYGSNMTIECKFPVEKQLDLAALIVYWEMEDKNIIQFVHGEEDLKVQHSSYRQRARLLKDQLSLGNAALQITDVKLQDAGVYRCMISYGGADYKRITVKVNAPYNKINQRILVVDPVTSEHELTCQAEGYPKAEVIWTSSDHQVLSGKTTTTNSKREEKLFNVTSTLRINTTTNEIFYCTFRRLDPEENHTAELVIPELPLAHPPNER
# Assay: Biacore 8K (SPR), purified antibody
row,Binder,fold increase of affinity over the parent antibody B378737
1,B1,10 times
2,B2,12 times

# Target: T1, PDL1/His protein
# Assay: sandwich ELISA screen of hotspot combinations, as in Example 4
row,Binder,binding result
1,B3,binds

# Target: T1, PDL1/His protein
# Assay: hotspot screening sandwich ELISA, anti-human Fc 1.0 ug/mL, Bio-PDL1 4 ng/ml
# Protocol: Goat-anti-human IgG Fc was subjected to serial dilution in Table 5 and coating was performed overnight at 4° C. The coating solution was discarded the next day, and the plate was washed 5 times. Blocking was performed with 1% BSA at room temperature for 1 h, and the plate was washed 5 times. 50 μL B378737 expression supernatant was added to each well, incubation was performed at room temperature for 1 h, and the plate was washed 5 times. Biotin-labeled PDL1/His protein diluted in series was added, incubation was performed at room temperature for 1 h, and the plate was washed 5 times. SA-HRP was added, incubation was performed at room temperature for 0.5 h, and the plate was washed 10 times. TMB color development was terminated after 4 min, and the absorbance at 450 nm was read. […] The sample was the mutant expressing supernatant, and the other processes were the same as above.
row,Binder,binding result
1,B4,binds
2,B5,binds

# Target: T1, PDL1/His protein
# Assay: relative affinity ranking, sandwich ELISA, biotin-PDL1/His titrated from 5 ug/mL
# Protocol: The expression supernatants of the 11 single-point mutation molecules screened out in Example 4 and the 4 hotspot combination molecules screened out in Example 5 were subjected to relative affinity ranking. The specific process is as follows: The plate was coated with 1 μg/mL Goat-anti-human IgG Fc at 4° C. overnight. The coating solution was discarded the next day, and the plate was washed 5 times. Blocking was performed with 1% BSA at room temperature for 1 h, and the plate was washed 5 times. 50 μL of 2-fold diluted expression supernatant was added to each well and incubation was performed at room temperature for 1 h, and the plate was washed 5 times. Biotin-labeled PDL1/His diluted in series was added with 5 μg/mL in the first well, 3-fold dilution, and the last well as blank, and incubation was performed at room temperature for 1 h, and the plate was washed 5 times. SA-HRP was added, and incubation was performed at room temperature for 0.5 h, and the plate was washed 10 times. TMB color development was terminated after 4 min, and the absorbance at 450 nm was read.
row,Binder,binding result
1,B6,binds
2,B7,binds
3,B8,binds
4,B9,binds
5,B10,binds
6,B11,binds
7,B12,binds
8,B13,binds
9,B14,binds
